Data taken from PMC7710722, “A nanobody suite for yeast scaffold nucleoporins provides details of the nuclear pore complex structure” (Nature Communications, 2020).
Blank lines part the entries; values can stand above or below the binder they belong to.

Experiments:
Settings in all cases: both partners purified
Nic96_(186–839) = biological target: T1, Nic96_(186–839) (Saccharomyces cerevisiae S288c, UniProt P34077); experiment: BLI; biotinylated, C-terminally Avi-tagged nanobody immobilised on streptavidin tips, nup as analyte in twofold dilution series; 10 mM Tris/HCl pH 7.5, 150 mM NaCl, 1 mM DTT, 0.1 mM EDTA, 0.05% Tween-20, 0.1% BSA; global 1:1 kinetic fit
T1 construct: The only Nic96 construct in the methods; source: E. coli LOBSTR-RIL(DE3), purified (Ni Sepharose, 3C protease, Superdex S200)

[1] = biological target: T2, Nup120 (analyte of the BLI of Table 1) (Saccharomyces cerevisiae S288c, UniProt P35729); experiment: as above
T2 construct: Nup120, S. cerevisiae; source: E. coli, recombinant
T2 sequence (P35729 whole entry): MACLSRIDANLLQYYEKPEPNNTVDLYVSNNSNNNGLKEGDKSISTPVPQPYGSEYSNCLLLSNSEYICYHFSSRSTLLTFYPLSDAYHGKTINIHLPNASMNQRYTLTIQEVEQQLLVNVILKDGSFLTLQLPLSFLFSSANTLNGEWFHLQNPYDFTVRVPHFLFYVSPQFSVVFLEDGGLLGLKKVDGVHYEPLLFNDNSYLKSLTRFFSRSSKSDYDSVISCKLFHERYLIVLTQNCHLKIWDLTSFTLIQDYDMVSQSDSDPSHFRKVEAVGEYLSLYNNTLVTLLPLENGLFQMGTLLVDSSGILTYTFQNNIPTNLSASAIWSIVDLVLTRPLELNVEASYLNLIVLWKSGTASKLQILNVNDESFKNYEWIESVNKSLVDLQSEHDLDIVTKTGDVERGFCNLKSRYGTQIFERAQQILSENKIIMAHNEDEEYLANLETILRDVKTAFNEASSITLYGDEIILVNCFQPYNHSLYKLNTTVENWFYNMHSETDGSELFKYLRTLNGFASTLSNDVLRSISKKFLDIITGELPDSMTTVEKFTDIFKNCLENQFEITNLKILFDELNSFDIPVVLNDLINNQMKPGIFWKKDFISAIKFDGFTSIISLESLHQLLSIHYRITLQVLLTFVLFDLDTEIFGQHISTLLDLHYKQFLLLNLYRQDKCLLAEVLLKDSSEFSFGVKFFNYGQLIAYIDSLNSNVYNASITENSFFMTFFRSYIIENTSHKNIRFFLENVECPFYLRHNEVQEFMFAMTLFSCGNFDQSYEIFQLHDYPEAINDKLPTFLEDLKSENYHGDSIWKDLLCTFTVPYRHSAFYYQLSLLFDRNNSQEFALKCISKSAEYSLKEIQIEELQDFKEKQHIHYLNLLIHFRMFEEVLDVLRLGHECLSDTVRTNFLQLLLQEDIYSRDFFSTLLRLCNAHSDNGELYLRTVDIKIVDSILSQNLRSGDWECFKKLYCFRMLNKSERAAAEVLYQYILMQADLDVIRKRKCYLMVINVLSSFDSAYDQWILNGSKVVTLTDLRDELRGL

[2] = biological target: T3, fusion construct of Nup145C-Sec13 (Saccharomyces cerevisiae S288c, UniProt P49687;Q04491); experiment: SEC; nup and nanobody incubated 30 min on ice, then Superdex S75 or S200 10/300 in 150 mM NaCl, 10 mM Tris/HCl pH 7.5, 1 mM DTT, 0.1 mM EDTA
T3 construct: Nup145C, the C-terminal product of Nup145, S. cerevisiae; named among the 'full-length nups'; Sec13, S. cerevisiae; source: E. coli

[3] = biological target: T4, Sec13 fused to the Nup145C insertion blade (Saccharomyces cerevisiae S288c, UniProt Q04491); experiment: as above
T4 construct: Sec13, S. cerevisiae; Nup145C insertion blade, S. cerevisiae, residues 320-411 as printed; also called Sec13-Nup145C_(320–411); Sec13-Nup145C_(blade); source: E. coli LOBSTR-RIL(DE3), purified (Ni Sepharose, 3C protease, Superdex S75)

Nup84 = biological target: T5, Nup84 (S. cerevisiae, UniProt P52891); experiment: BLI; biotinylated, C-terminally Avi-tagged nanobody immobilised on streptavidin tips, nup as analyte in twofold dilution series; 10 mM Tris/HCl pH 7.5, 150 mM NaCl, 1 mM DTT, 0.1 mM EDTA, 0.05% Tween-20, 0.1% BSA; global 1:1 kinetic fit
T5 construct: Nup84, S. cerevisiae; limits not given; source: E. coli LOBSTR-RIL(DE3), purified (Ni Sepharose, 3C protease, HiTrap SP FF flow-through, Superdex S200)
T5 sequence (P52891 whole entry): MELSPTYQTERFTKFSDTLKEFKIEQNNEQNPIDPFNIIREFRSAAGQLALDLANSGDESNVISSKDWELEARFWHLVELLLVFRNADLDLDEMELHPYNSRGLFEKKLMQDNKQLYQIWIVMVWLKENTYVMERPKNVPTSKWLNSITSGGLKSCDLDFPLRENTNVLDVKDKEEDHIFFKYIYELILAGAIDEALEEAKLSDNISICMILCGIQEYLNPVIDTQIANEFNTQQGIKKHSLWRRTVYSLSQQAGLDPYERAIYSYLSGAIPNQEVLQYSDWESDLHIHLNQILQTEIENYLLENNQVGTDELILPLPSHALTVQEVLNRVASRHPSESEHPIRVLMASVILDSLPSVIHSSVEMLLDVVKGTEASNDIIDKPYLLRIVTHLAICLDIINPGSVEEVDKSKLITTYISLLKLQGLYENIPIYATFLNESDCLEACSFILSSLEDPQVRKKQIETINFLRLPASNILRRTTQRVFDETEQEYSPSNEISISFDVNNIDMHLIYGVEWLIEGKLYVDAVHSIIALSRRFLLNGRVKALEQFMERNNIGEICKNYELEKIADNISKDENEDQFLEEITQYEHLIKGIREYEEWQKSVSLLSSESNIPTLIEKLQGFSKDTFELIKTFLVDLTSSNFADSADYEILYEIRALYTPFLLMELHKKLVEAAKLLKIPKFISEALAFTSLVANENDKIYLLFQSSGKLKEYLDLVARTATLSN

[4] = biological target: T6, Nup133 (analyte of the BLI of Table 1) (Saccharomyces cerevisiae (strain ATCC …, UniProt P36161)); experiment: as above
T6 construct: Nup133, S. cerevisiae; source: E. coli, recombinant
T6 sequence (P36161 whole entry): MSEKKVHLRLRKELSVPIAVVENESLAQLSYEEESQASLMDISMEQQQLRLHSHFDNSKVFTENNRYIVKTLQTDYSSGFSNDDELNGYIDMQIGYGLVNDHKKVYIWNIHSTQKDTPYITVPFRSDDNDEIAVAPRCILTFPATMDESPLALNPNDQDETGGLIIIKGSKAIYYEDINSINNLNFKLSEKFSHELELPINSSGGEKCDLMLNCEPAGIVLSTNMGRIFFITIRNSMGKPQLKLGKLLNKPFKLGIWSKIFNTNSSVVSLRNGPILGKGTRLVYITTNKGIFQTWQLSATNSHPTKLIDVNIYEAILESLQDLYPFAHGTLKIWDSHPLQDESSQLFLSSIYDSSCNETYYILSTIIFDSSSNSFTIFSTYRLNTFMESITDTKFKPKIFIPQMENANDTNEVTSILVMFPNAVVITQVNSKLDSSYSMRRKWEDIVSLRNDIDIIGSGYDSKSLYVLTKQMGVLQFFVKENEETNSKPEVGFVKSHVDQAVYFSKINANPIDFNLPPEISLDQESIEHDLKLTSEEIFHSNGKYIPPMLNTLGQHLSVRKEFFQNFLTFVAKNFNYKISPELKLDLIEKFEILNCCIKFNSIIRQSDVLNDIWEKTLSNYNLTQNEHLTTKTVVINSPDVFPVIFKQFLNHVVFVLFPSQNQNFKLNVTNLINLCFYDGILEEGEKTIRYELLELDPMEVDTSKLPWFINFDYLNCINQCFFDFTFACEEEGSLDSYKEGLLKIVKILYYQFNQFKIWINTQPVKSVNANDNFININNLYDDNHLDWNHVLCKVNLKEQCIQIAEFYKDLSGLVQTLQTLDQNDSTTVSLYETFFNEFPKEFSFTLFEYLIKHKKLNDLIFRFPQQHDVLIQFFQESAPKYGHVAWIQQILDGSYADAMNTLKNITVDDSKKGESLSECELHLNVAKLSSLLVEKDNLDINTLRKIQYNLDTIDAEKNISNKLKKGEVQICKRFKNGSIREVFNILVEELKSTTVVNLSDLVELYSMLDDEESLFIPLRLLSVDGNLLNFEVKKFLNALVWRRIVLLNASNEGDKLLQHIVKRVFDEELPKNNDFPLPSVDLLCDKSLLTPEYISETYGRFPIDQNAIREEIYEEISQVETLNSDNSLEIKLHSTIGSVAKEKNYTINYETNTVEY

[5] = biological target: T7, Nup85 (analyte of the BLI of Table 1) (Saccharomyces cerevisiae S288c, UniProt P46673); experiment: as above
T7 construct: Nup85, S. cerevisiae; the analyte may have been a complex with Seh1; source: E. coli, recombinant

Nup85_(1–564) = biological target: T8, Nup85_(1–564) (S. cerevisiae, UniProt P46673 1-564); experiment: crystal structure; nup-nanobody complexes crystallised at 18 °C; solved by molecular replacement
T8 construct: Nup85, S. cerevisiae, residues 1-564 (crown and trunk modules); The Nup85 chain of m31, written alone for the pairs that touch in the structure 6X08; also called Nup85_(trunk-crown); Nup85_(crown-trunk); source: E. coli LOBSTR-RIL(DE3), purified together with Seh1
T8 sequence (looked up): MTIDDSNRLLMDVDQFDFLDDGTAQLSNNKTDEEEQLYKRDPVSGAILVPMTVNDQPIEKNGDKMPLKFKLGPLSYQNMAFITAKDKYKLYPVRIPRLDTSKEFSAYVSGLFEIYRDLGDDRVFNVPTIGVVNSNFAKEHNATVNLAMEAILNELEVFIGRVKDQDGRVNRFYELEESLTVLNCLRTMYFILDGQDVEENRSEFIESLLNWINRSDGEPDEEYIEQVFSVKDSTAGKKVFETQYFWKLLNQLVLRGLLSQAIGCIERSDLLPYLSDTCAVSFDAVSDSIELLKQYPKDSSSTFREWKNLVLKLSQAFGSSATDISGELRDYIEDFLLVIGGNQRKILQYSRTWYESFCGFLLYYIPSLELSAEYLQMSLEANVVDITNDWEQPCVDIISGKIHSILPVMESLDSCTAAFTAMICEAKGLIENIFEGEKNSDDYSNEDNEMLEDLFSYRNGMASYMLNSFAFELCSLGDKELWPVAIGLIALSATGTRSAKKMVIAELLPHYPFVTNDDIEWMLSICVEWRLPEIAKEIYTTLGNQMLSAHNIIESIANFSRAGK

[6] = biological target: T9, Sec13 (analyte of the BLI of Table 1) (Saccharomyces cerevisiae S288c, UniProt Q04491); experiment: BLI; biotinylated, C-terminally Avi-tagged nanobody immobilised on streptavidin tips, nup as analyte in twofold dilution series; 10 mM Tris/HCl pH 7.5, 150 mM NaCl, 1 mM DTT, 0.1 mM EDTA, 0.05% Tween-20, 0.1% BSA; global 1:1 kinetic fit
T9 construct: Sec13, S. cerevisiae; The analyte may have been Sec13 fused to the Nup145C insertion blade; source: E. coli, recombinant
T9 sequence (Q04491 whole entry, the tested form may be a part): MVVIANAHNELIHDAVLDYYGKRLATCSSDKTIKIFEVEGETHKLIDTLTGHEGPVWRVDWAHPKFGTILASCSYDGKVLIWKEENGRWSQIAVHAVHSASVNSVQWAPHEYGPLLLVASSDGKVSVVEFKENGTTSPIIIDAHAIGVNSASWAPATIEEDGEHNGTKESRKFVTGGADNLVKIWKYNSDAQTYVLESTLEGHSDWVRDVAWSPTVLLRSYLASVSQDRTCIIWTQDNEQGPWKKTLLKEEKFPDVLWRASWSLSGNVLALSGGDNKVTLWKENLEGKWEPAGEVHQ

[7] = biological target: T10, Nup120-Nup85-Seh1-Nup145C-Sec13 (Saccharomyces cerevisiae S288c, UniProt P35729;P46673;P53011;P49687;Q04491); experiment: SEC; nup and nanobody incubated 30 min on ice, then Superdex S75 or S200 10/300 in 150 mM NaCl, 10 mM Tris/HCl pH 7.5, 1 mM DTT, 0.1 mM EDTA
T10 construct: Nup120, S. cerevisiae; Nup85, S. cerevisiae; Seh1, S. cerevisiae; Nup145C, the C-terminal product of Nup145, S. cerevisiae, residues 34-712; Sec13, S. cerevisiae; Nup145C and Sec13 may stand on one chain as in the fusion construct; also called assembled Y complex hub; source: E. coli, purified; assembled from Nup85-Seh1 and Nup120-Nup145C_(34–712)-Sec13 on Superdex S200; copies: + + + +

B6: VHH-SAN4 with biotinylated C-terminal Avi-tag (VHH)
VHH: QLQLVESGGGSVQAGGSLTLSCTASESISKRIHGIGWFRQRRGEQREEIAYITTGGRPNLGDSVKDRFTISRDKSNGTVYLQMNSLKPEDTAVYYCHGRGRWWGTEGRLDYWGQGTQVTVSS
notes: Separate Avi-tagged construct used for BLI; source: E. coli LOBSTR-RIL(DE3), biotin added to the culture, purified (Ni Sepharose, SEN-p protease, Superdex S75); not shown: 14xHis, N-terminal, cleaved; bdSUMO, N-terminal, cleaved; Avi-tag, C-terminal, kept
Kd [4]: 230 nM
koff [4]: 0.22 s⁻¹
kon [4]: 950000 M⁻¹ s⁻¹

B7: VHH-SAN3 with biotinylated C-terminal Avi-tag (VHH)
VHH: QVQLVESGGGLVQAGGSLRLSCFASGGTFSRYDMGWFRQAPGKEREFVARITRGGRVADYAAFVEGRFTISRDNAKNTVYLQMNSLKPEDTGIYFCAGKDAGVFDFYLWGQGTQVTVSS
notes: as for B6
Kd [5]: 0.014 nM
koff [5]: 8.1e-06 s⁻¹
kon [5]: 580000 M⁻¹ s⁻¹

B9: VHH-SAN5 with biotinylated C-terminal Avi-tag (VHH)
VHH: QVQLVESGGGLVQAGGSLRLSCAASGSIGSLDAMAWYRRAPGKQRERVASISRYGTYYVDSVKGRFTISRDNAKNTVYLQMNSLKPEDTGVYYCKGVMEVGGVIDEYWGQGTQVTVSS
notes: as for B6
Kd [4]: 10 nM
koff [4]: 0.0028 s⁻¹
kon [4]: 280000 M⁻¹ s⁻¹

B10: VHH-SAN1 with biotinylated C-terminal Avi-tag (VHH)
VHH: QVQLVETGGGLVPPGGSLKLSCAVSGDILRVQTMGWYRQAPGKQRELVAAFTGGGRTNYADSMKGRFTISRDNAKNTVFLQMNSLKPEDTAVYYCRADIAAVRPWPLQEYWGQGTQVTVSS
notes: as for B6
Kd [5]: 0.58 nM
koff [5]: 0.0014 s⁻¹
kon [5]: 2.3e+06 M⁻¹ s⁻¹

B11: VHH-SAN7 with biotinylated C-terminal Avi-tag (VHH)
VHH: QVQLVETGGGLVQPGGSLRLSCVASGSIFGINAMGWYRQAPGNQRELVASIRSDFGTTKYADSVKGRFTISRGNARTTVYLQMNSLKPEDTAVYYCRIWSADGNYWGQGTQVTVSS
notes: as for B6
Kd [6]: 0.51 nM
koff [6]: 0.00065 s⁻¹
kon [6]: 1.3e+06 M⁻¹ s⁻¹

B14: VHH-SAN2 with biotinylated C-terminal Avi-tag (VHH)
VHH: QVQLVETGGGLVQPGGSLRLSCAASGFTLDDYAIGWFRQAPGKEREGVSCISRSGGSTTYTDSVKGRFTISRDNAENTVYLQMNSLKPEDTAVYYCAAARTRGTCWLNRIGMDYWGKGTQVTVSS
notes: also in PDB 6X08; Separate Avi-tagged construct used for BLI; source: E. coli LOBSTR-RIL(DE3), biotin added to the culture, purified (Ni Sepharose, SEN-p protease, Superdex S75); not shown: 14xHis, N-terminal, cleaved; bdSUMO, N-terminal, cleaved; Avi-tag, C-terminal, kept
Kd [5]: 0.08 nM
koff [5]: 8.1e-05 s⁻¹
kon [5]: 1e+06 M⁻¹ s⁻¹

Other lines, results leading:

Kd (Nic96_(186–839)): 1.3 nM
koff (Nic96_(186–839)): 0.0024 s⁻¹
kon (Nic96_(186–839)): 1.8e+06 M⁻¹ s⁻¹
B1: VHH-SAN12 with biotinylated C-terminal Avi-tag (VHH)
VHH: QVQLVETGGGLVQAGGSLRLSCATSGFNFRLRTMGWYRQAPGKERELVASITSGGSTDYADSVKGRFTISRDNAKNTISLEMNSLKPDDTAVYYCNIWAPTTAAITNWGQGTQVTVSS
notes: also in PDB 6X07; Separate Avi-tagged construct used for BLI; source: E. coli LOBSTR-RIL(DE3), biotin added to the culture, purified (Ni Sepharose, SEN-p protease, Superdex S75); not shown: 14xHis, N-terminal, cleaved; bdSUMO, N-terminal, cleaved; Avi-tag, C-terminal, kept

Kd [1]: 0.79 nM
koff [1]: 0.00078 s⁻¹
kon [1]: 980000 M⁻¹ s⁻¹
B2: VHH-SAN11 with biotinylated C-terminal Avi-tag (VHH)
VHH: QVQLVETGGGLVRAGGSLRLSCVDSGRTFRVYTMGWFRQAPGKEREFVAAIRWSGDRTYYGDPVQGRFTISRDKGKNTVYLQMNSLKPEDTAVYYCAAPAGGGVVYDDHKAYAYWGQGTQVTVS
notes: also in PDB 6X06; Separate Avi-tagged construct used for BLI; source: E. coli LOBSTR-RIL(DE3), biotin added to the culture, purified (Ni Sepharose, SEN-p protease, Superdex S75); not shown: 14xHis, N-terminal, cleaved; bdSUMO, N-terminal, cleaved; Avi-tag, C-terminal, kept

binding result [2]: binds
binding result [3]: no binding
B3: VHH-SAN6 (VHH)
VHH: QLQLVETGGGSVQAGGSLSLSCIVSGRTSTYYAMGWFRQAPGKEREFVAAINWSGSSTVYEESVKGRFTISRDNVQNTVYLQMNSLKPEDTADYYCAAAATIFIPRPDEYPYWGQGTQVTVSS
notes: source: E. coli LOBSTR-RIL(DE3), purified (Ni Sepharose, SEN-p protease, Superdex S75); not shown: 14xHis, N-terminal, cleaved; bdSUMO, N-terminal, cleaved

Kd [1]: 0.38 nM
koff [1]: 0.00017 s⁻¹
kon [1]: 450000 M⁻¹ s⁻¹
B4: VHH-SAN10 with biotinylated C-terminal Avi-tag (VHH)
VHH: QVQLVETGGGLVQAGGSLRLSCVVSGRTFSSYAMGWFRQAPGKEREFVSGINWSGGSAYYGDSVKGRFTISRDNAKNTVYLQMNSLKPEDTAVYYCVADRAWRGTTWRADSSYDYWGQGTQVTVSS
notes: deposited with PDB 6X06, but no density for VHH-SAN10 in the map; Separate Avi-tagged construct used for BLI; source: E. coli LOBSTR-RIL(DE3), biotin added to the culture, purified (Ni Sepharose, SEN-p protease, Superdex S75); not shown: 14xHis, N-terminal, cleaved; bdSUMO, N-terminal, cleaved; Avi-tag, C-terminal, kept

Kd (Nup84): 0.063 nM
koff (Nup84): 2.2e-05 s⁻¹
kon (Nup84): 350000 M⁻¹ s⁻¹
B5: VHH-SAN8 with biotinylated C-terminal Avi-tag (VHH)
VHH: QLQLVETGGGLVQAGGSLRLSCVASGRTFTSYAMGWFRQAPGKEREFVAAISRLASGTDYADSVKGRFTISRNNDKNTVYLQMNNLIPEDTAVYYCAALQALRFSLPIAMATMKNGRADSWGQGTQVTVSS
notes: as for B6

binding result (Nup85_(1–564)): binds
B8: Seh1 (natural protein, S. cerevisiae)
chain: MQPFDSGHDDLVHDVVYDFYGRHVATCSSDQHIKVFKLDKDTSNWELSDSWRAHDSSIVAIDWASPEYGRIIASASYDKTVKLWEEDPDQEECSGRRWNKLCTLNDSKGSLYSVKFAPAHLGLKLACLGNDGILRLYDALEPSDLRSWTLTSEMKVLSIPPANHLQSDFCLSWCPSRFSPEKLAVSALEQAIIYQRGKDGKLHVAAKLPGHKSLIRSISWAPSIGRWYQLIATGCKDGRIRIFKITEKLSPLASEESLTNSNMFDNSADVDMDAQGRSDSNTEEKAELQSNLQVELLSEHDDHNGEVWSVSWNLTGTILSSAGDDGKVRLWKATYSNEFKCMSVITAQQ
notes: Seh1, S. cerevisiae; Used alone in SEC with VHH-SAN1; also written alone for its contact with Nup85(1-564) in the structure 6X08; also called Seh1 alone; source: E. coli

binding result [2]: binds
binding result [7]: binds
B12: VHH-SAN7 (VHH)
VHH: B11 VHH
notes: as for B3

Kd (Nup84): 0.17 nM
koff (Nup84): 7.7e-05 s⁻¹
kon (Nup84): 440000 M⁻¹ s⁻¹
B13: VHH-SAN9 with biotinylated C-terminal Avi-tag (VHH)
VHH: QVQLVESGGGSVQAGGSLRLSCAVSGGTLSTLAMGWFRQAPGQEREFVARIGWTNGDTGYADSVKGRFTISRDNVKNTVYLQMNNLKPEDTALYYCATRRPYGSTLYPPNTESAHDNWGQGTQVTVSS
notes: as for B6
